Assay results reported in patent US20240141039A1 (AGENUS, published 2024).

T1: full-length ECD of human TIGIT (His-tagged) (human)
T1 construct: also called His-tagged human TIGIT; human TIGIT extracellular domain
T1 chain: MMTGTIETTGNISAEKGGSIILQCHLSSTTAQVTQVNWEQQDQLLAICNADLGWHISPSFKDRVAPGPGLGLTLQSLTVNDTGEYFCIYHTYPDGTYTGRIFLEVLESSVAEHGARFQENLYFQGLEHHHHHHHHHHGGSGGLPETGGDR

T2: wild type full-length human TIGIT expressed on cells (human, UniProt Q495A1 22-244)
T2 construct: whole, on cells; also called human TIGIT-CHO; human TIGIT CHO cells
T2 sequence (looked up): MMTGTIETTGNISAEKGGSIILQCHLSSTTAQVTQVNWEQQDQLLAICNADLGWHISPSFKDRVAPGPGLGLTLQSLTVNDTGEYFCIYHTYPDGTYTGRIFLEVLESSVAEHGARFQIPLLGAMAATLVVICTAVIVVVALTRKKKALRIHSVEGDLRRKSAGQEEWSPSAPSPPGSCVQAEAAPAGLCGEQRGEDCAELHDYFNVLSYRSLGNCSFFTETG


Columns and labels:
[1] = target: T1, full-length ECD of human TIGIT …; test: SPR Biacore T200, Protein A capture, 1:1 model, experiment #2
Protocol: (§1) Briefly, surface plasmon resonance experiments were performed using a Biacore T200 instrument, and the association rate (kₐ), dissociation rate (kd), and dissociation constant (KD) were calculated from each experiment using a 1:1 binding model with Biacore T200 Evaluation Software.
(§2) Multispecific molecules were captured using a 30-sec injection at a flow rate of 10 μl/min to reach about 1000 resonance units (RUs). […] The sensor chip was regenerated between cycles with two 30-sec injections of 10 mM glycine, pH 1.5. Sensorgrams were evaluated and fit to a simple Langmuir 1:1 interaction model using the global data analysis option of BIAevaluation 3.0 software. Data quality was verified by visually inspecting deviations and curve fitting, and by evaluating the parameters of Rₘₐₓ, Chi2, and Tc.

[2] = target: T1, full-length ECD of human TIGIT …; test: SPR Biacore T200, geomean of experiments #1 and #2
Protocol: as §1, §2

[3] = target: T1, full-length ECD of human TIGIT …; test: SPR Biacore T200, Protein A capture, 1:1 model, experiment #2
Protocol: as §1
as §2, with “Antibodies” for “Multispecific molecules”, “500” for “1000”

[4] = target: T3, full-length ECD of cynomolgus monkey TIGIT (His-tagged) (cynomolgus monkey); test: as above
T3 construct: also called His-tagged cynomolgus monkey TIGIT; cyno TIGIT extracellular domain
Protocol: as §1
as §2, with “Antibodies” for “Multispecific molecules”, “500” for “1000”

[5] = target: T1, full-length ECD of human TIGIT …; test: SPR Biacore T200, geomean of experiments #1 and #2
Protocol: as §1
as §2, with “Antibodies” for “Multispecific molecules”, “500” for “1000”

[6] = target: T3, full-length ECD of cynomolgus monkey …; test: SPR Biacore T200, geomean of experiments #1 and #2
Protocol: as §1
as §2, with “Antibodies” for “Multispecific molecules”, “500” for “1000”

[7] = target: T1, full-length ECD of human TIGIT …; test: SPR Biacore T200, Protein A capture, 1:1 model, experiment #1
Protocol: as §1
as §2, with “Antibodies” for “Multispecific molecules”, “500” for “1000”

[8] = target: T3, full-length ECD of cynomolgus monkey …; test: as above
Protocol: as §1
as §2, with “Antibodies” for “Multispecific molecules”, “500” for “1000”

[9] = target: T2, wild type full-length human TIGIT …; test: flow cytometry, blocking of human CD155-Fc-PE binding to CHO cells expressing human TIGIT
Protocol: A 4× concentrated intermediate stock of each antibody was prepared in a microplate. Antibodies were serially diluted 1-to-4 in FACS buffer. […] Lastly, 25 μL of human TIGIT-CHO cells, prepared as described above, were added to each well. After a 30-minute incubation on ice, the cells were washed twice with cold FACS Buffer, and the cells were analyzed by flow cytometry (BD LSR Fortessa Flow Cytometer). The data were analyzed using the FlowJo software by sequentially gating on the FSC-A vs. SSC-A and SSC-H vs. SSC-A. Mean fluorescence intensity (MFI) values for PE were calculated, and the data were plotted by GraphPad Prism software and analyzed as described above.

[10] = target: T4, full-length human FcγRIIIa variant F/F expressed on CHO cells (human, UniProt P08637 17-254); test: flow cytometry, human FcγRIIIa (F/F) CHO cells, 1 experiment
T4 construct: whole, on cells; also called human FcγRIIIa-CHO (variant F/F); human FcγRIIIa (F/F) CHO cells
Protocol: For the antibody binding assay, a frozen aliquot of human FcγRIIIa-CHO cells (variant V/V or variant F/F) was thawed at 37° C. and then transferred to a tube containing DPBS supplemented with 0.5% Bovine Serum Albumin and 0.05% Sodium Azide (FACS Buffer). Cells were centrifuged at 300 g for five minutes. The supernatant was discarded, and cells resuspended in FACS buffer were seeded in a 96-well U-bottom tissue culture plate at a density of 2×10⁵ cells per well in 50 μL. In a separate microplate, a 2× concentrated intermediate stock of each antibody was prepared. Antibodies were serially diluted 1-to-4 in FACS buffer. A total of 11 working dilutions ranging from 60 μg/mL to 0.000057 μg/mL were prepared. Fifty microlitres of each dilution were then transferred to the microplate containing human FcγRIIIa-CHO (variant V/V or variant F/F) cells. The cells were then incubated for 45 minutes at 4° C. […] After a 30-minute incubation on ice, the cells were washed twice with cold FACS Buffer, and the cells were analyzed by flow cytometry (BD LSR Fortessa Flow Cytometer). The data were analyzed using the FlowJo software by sequentially gating the FSC-A vs. SSC-A, and SSC-H vs. SSC-A. Mean fluorescence intensity (MFI) values for PE were calculated, and the data were plotted by GraphPad Prism software.

T4 sequence (P08637 17-254, change not shown): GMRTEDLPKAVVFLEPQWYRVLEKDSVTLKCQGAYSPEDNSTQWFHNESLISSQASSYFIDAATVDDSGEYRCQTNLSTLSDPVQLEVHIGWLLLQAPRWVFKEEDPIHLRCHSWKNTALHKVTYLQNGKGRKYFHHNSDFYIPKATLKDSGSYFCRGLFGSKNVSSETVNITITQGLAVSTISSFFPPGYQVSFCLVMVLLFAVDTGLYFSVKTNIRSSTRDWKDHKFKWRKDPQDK

Binder	Kd [1] [nM]	koff [1] [s⁻¹]	kon [1] [M⁻¹ s⁻¹]	Kd [2] [nM]	Kd [3] [nM]	koff [3] [s⁻¹]	kon [3] [M⁻¹ s⁻¹]	Kd [4] [nM]	koff [4] [s⁻¹]	kon [4] [M⁻¹ s⁻¹]	Kd [5] [nM]	Kd [6] [nM]	Kd [7] [nM]	koff [7] [s⁻¹]	kon [7] [M⁻¹ s⁻¹]	Kd [8] [nM]	koff [8] [s⁻¹]	kon [8] [M⁻¹ s⁻¹]	IC50 (read off the curve) [9] [ng/mL]	EC50 [10] [ng/mL]
anti-TIGIT×CD96 multispecific molecule BA127 (bispecific antibody, human IgG1, kappa, lambda, Anti-CD96 arm = BA139, anti-TIGIT arm = BA150; copies: 1 + 1 + 1 + 1) heavy 1: QVQLVQSGAEVKKPGASVKVSCKASGYTFTTYALHWVRQAPGQRLEWMGWINTGSGDTKYSQKFQGRVTITRDTSASTAYMELSSLRSEDTAVYYCARSLGVYYGMDVWGQGTLVTVSSASTKGPSVFPLAPSSKSTSGGTAALGCLVKDYFPEPVTVSWNSGALTSGVHTFPAVLQSSGLYSLSSVVTVPSSSLGTQTYICNVNHKPSNTKVDKRVEPKSCDKTHTCPPCPAPELLGGPDVFLFPPKPKDTLMISRTPEVTCVVVDVSHEDPEVKFNWYVDGVEVHNAKTKPREEQYNSTYRVVSVLTVLHQDWLNGKEYKCKVSNKALPAPIEKTISKAKGQPREPQVYTLPPSREEMTKNQVSLSCAVKGFYPSDIAVEWESNGQPENNYKTTPPVLDSDGSFFLVSKLTVDKSRWQQGNVFSCSVMHEALHNHYTQKSLSLSPG light 1: not shown heavy 2: EVQLVQSGAEVKKPGSSVKVSCKASGYTFASYGISWVRQAPGQGLEWMGGITPFFNRVDVAEKFQGRVTITADKSTSTAYIELSSLRSEDTAVYYCARDLRRGGVGDAFDIWGRGTLVTVSSASTKGPSVFPLAPSSKSTSGGTAALGCLVKDYFPEPVTVSWNSGALTSGVHTFPAVLQSSGLYSLSSVVTVPSSSLGTQTYICNVNHKPSNTKVDKRVEPKSCDKTHTCPPCPAPELLGGPDVFLFPPKPKDTLMISRTPEVTCVVVDVSHEDPEVKFNWYVDGVEVHNAKTKPREEQYNSTYRVVSVLTVLHQDWLNGKEYKCKVSNKALPLPEEKTISKAKGQPREPQVYTLPPSREEMTKNQVSLWCLVKGFYPSDIAVEWESNGQPENNYKTTPPVLDSDGSFFLYSKLTVDKSRWQQGNVFSCSVMHEALHNHYTQKSLSLSPG light 2: QSALTQPRSVSGSPGQSVTISCTGTSPDVGSHAYRSWYQQHPGKAPKLMIYEVSYRPSGVSNRFSGSKSGNTASLTISGLQAEDEADYYCSSYPPSSATVFGAGTKLTVLGQPKAAPSVTLFPPSSEELQANKATLVCLISDFYPGAVTVAWKADSSPVKAGVETTTPSKQSNNKYAASSYLSLTPEQWKSHRSYSCQVTHEGSTVEKTVAPTEC	0.611	0.000385	631000	0.59	–	–	–	–	–	–	–	–	–	–	–	–	–	–	–	–
anti-TIGIT monospecific antibody BA148 (antibody, human IgG1, lambda, IgG1; also called anti-TIGIT IgG1 antibody BA148) heavy: EVQLVQSGAEVKKPGSSVKVSCKASGYTFASYGISWVRQAPGQGLEWMGGITPFFNRVDVAEKFQGRVTITADKSTSTAYIELSSLRSEDTAVYYCARDLRRGGVGDAFDIWGRGTLVTVSSASTKGPSVFPLAPSSKSTSGGTAALGCLVKDYFPEPVTVSWNSGALTSGVHTFPAVLQSSGLYSLSSVVTVPSSSLGTQTYICNVNHKPSNTKVDKRVEPKSCDKTHTCPPCPAPELLGGPDVFLFPPKPKDTLMISRTPEVTCVVVDVSHEDPEVKFNWYVDGVEVHNAKTKPREEQYNSTYRVVSVLTVLHQDWLNGKEYKCKVSNKALPLPEEKTISKAKGQPREPQVYTLPPSREEMTKNQVSLTCLVKGFYPSDIAVEWESNGQPENNYKTTPPVLDSDGSFFLYSKLTVDKSRWQQGNVFSCSVMHEALHNHYTQKSLSLSPGK light: QSALTQPRSVSGSPGQSVTISCTGTSPDVGSHAYRSWYQQHPGKAPKLMIYEVSYRPSGVSNRFSGSKSGNTASLTISGLQAEDEADYYCSSYPPSSATVFGAGTKLTVLGQPKAAPSVTLFPPSSEELQANKATLVCLISDFYPGAVTVAWKADSSPVKAGVETTTPSKQSNNKYAASSYLSLTPEQWKSHRSYSCQVTHEGSTVEKTVAPTEC	–	–	–	–	0.548	0.000422	770000	4.06	0.00126	310000	0.54	3.9	0.535	0.000413	773000	3.8	0.00127	334000	~10	2.62
